Several values for one entry are separate records, joined by “and”; a condition that tells them apart may be missing. Equal values may be shown once.
Biological target: the molecule itself
Test: cross-linking

B1: recombinant His-klp9p (natural protein, S. pombe (fission yeast), UniProt Q1MTQ7 1-633, looked up)
chain: MIQIFLRVKKAQPSSDASNKYGFLTVLNDYEILLESPEDSHAYRVSKSKTLEKASFTKVFPPSCTQLDVFSTICAPLIADSLVNMNDTLLFTLGVSGAGKTYTLFGPSDRPGVAFLALDALFYAIKGREASPQTVEFLRSQLEKCKIVEASKFLRGEAPLDIKVPNTEYYASHFPKIEEKNYQYAIYLSFAEIYNDRIFDLLEKASFFGHRHALSLKKSSTSDKKSIAGIQKVFVSNTTEAYKLIQKVLQLRKSTSTKSNSVSSRSHLIMSIELFKVCTKSNKFESCQIDLVDLAGSERTRSAETSGLLLREGASINRSLLTLGQCLEALRRKHEGKQHIIPFRQSKLTELLFHSGHLSGLAGINMLVNIDPFGSFDENAQVMRYSANAREILPPPLNENSGSQSPSHSLLQKSKNTSSTKALTSHLEQLQQENQQLRMLLADADSEMMNLEYEIRQQMTREMEERVSEVERTFLTKLLEESAQGIEYTDQKLEKMGGWMKKLQDENSEKTETIAQLEQIIEELHEELRSLEEESIKESSATQQNENQHKRSSRKLLYEDKQAIQEAHTINTKRKLWPQSTLIQAPNSDDEENVPSPSPKKKVVSPIKPLSPSRRPPLTSLYSGTTDIDINEL
B1 was tested, and the “stoichiometry N” value was 2 and 4.

From paper PMC2997714 (Developmental cell, 2009)
